# According to patent US20200113997A1 (published 2020):
# B1: DH270.IA4 (antibody, V domains shown)
# VH: QVQLVQSGAEVKKPGASVKVSCKASGYTFTDYYIHWVRQAPGQGLEWMGWINPNTGRTNYAQKFQGRVTMTRDTSISTAYMELSRLRSDDTAVYYCARGGWIGLYYDSSGYPNFDYWGQGTLVTVSS
# VL: QSALTQPASVSGSPGQSITISCTGTSYDVGSYNLVSWYQQHPGKAPKLMIYEVSKRPSGVSNRFSGSKSGNTASLTISGLQAEDEADYYCCSYAGSSTVIFGGGTKLTVL
# notes: also called DH270_I4
# Molecular target: CH848 Env trimer expressed on the cell surface of CHO cells (HIV-1 (clade C, individual CH848, …))
# Assay: flow cytometry on CHO cells expressing CH848 Env
binder,measurement,value
B1,binding result,no binding (tested: 5 ug/mL)
